Measured values taken from patent US20130078245A1 (REGENTS OF THE UNIVERSITY OF COLORADO A BODY CORPORATE, published 2013).

Target: T1, recombinant human C3d (human, UniProt P01024 996-1303, limits assumed)
T1 construct: domain: C3d; The Biacore paragraph says only C3d; also called recombinant C3d
Assay: BIAcore SPR, C3d immobilized on the chip, antibody at 10, 30 and 90 nM in flow, 1:1 Langmuir fit
From the text: The binding affinity of the anti-C3d/C3dg antibodies to C3d was further tested by BIAcore analysis.

T1 sequence (P01024 996-1303 limits assumed): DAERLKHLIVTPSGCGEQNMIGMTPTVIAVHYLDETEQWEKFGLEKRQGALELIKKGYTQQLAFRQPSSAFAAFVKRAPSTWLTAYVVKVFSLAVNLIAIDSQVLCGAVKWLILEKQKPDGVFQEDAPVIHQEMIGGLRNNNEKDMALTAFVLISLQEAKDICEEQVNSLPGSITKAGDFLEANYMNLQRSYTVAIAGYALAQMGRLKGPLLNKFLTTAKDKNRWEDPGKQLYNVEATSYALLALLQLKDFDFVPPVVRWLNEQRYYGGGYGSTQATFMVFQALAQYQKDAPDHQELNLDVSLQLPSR

- Kd: 1.06 nM
B1: mouse monoclonal anti-C3d antibody 3d29, produced by hybridoma cell line 3d-29/5/2 (ATCC PTA-11000) (antibody, V domains shown)
VH: EVQLQQSGPVLVKPGASVKMSCKASGYTFTDYYMNWVKQSHGKSLEWIGVINPYNGGTSYNQKFKGKATLTVDKSSRTAYMELNSLTSEDSAVYYCSRGGPYWGQGTTLTVSS
VL: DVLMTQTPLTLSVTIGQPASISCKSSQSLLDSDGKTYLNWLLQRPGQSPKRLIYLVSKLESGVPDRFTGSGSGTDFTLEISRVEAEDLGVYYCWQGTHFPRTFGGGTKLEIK
notes: Whole mouse IgG purified on protein G; also called mAb 3d29; clone 3d29
